The data set concerns T1, O=[N+]([O-])c1ccc(OP(=O)(O)O)cc1.
T1 construct: printed as 527 residues, 56 kDa; C-terminal factor Xa site and His6 tag; E. coli BL21(DE3) periplasm; monomer
The data set is described as follows: purified protein. The class given is biochemical, uncultured bacterium. The conditions noted are these: 37 °C, pH 9.0, 50 mM DEA, 0.5 mM CaCl2.

In general, Km refers to the substrate concentration at which the rate is half of its maximum. As usually defined, the kcat is the maximal rate divided by the concentration of active sites. The term kcat/Km denotes the second-order rate constant that governs catalysis at low substrate concentration.

Take “mAP (metagenome-derived alkaline phosphatase) (uncultured bacterium)”: the Km was found to be 180 µM, the kcat turned out to be 952 s⁻¹ and the kcat/Km is 5.3e+06 M⁻¹ s⁻¹.

The record behind these values is article PMC4335783, “A novel psychrophilic alkaline phosphatase from the metagenome of tidal flat sediments” (BMC Biotechnology, 2015).
